Assays:
purified protein [1] = substrate: Nc1ncnc2c1ncn2[C@@H]1O[C@H](COP(=O)(O)OP(=O)(O)O[C@H]2O[C@H](CO)[C@@H](O)[C@H](O)[C@H]2O)[C@@H](O)[C@H]1O; test: purified protein; format: biochemical, Sulfolobus acidocaldarius; settings: glycosyl donor, G6P as acceptor (standard 10 mM), 10 mM MgCl2, 50 mM HEPES-KOH pH 7, 55°C
purified protein [2] = substrate: O=c1ccn([C@@H]2O[C@H](CO[P@@](=O)(O)O[P@@](=O)(O)O[C@H]3O[C@H](CO)[C@@H](O)[C@H](O)[C@H]3O)[C@@H](O)[C@H]2O)c(=O)[nH]1; test: purified protein; format: biochemical, Sulfolobus acidocaldarius; settings: glycosyl donor, G6P as acceptor (standard 10 mM), 10 mM MgCl2, 50 mM HEPES-KOH pH 7, 55°C
[3] = target: the molecule itself; test: SEC; gel filtration under native conditions against SDS-PAGE under denaturing conditions; Superdex 200 HiLoad 26/60, 30 mM Tris-300 mM NaCl, pH 7

B1: trehalose-6-phosphate synthase (TPS, Saci_1249) of Sulfolobus acidocaldarius (enzyme, UniProt Q4J9D6 1-444, looked up)
chain: MFSVSISTQTPPVRFRYTYRDLMDKYGFFELPIELSQLDSSDYYFSVGGVPKMMLSLINKFNKVRWVSLGPGYPPQVKYGDQRLFDFIDLDPENLKNYTRYKEGIYNESHGIEKYEIKPSEYISYADYNWISAKKLLEFHNDSDVYFINDFQLLLVGGIIGPSAPAILWYHIPFVPENLSPRIRDFIVRSFEGYDYVILSTKRDLEGLLRIGAKINARQVYPFIDTSTLRRGSKGEVDKVKSKYNIGKDEKVITVVARMDPMKSQDVAIMALKKIKESNAKLLLVGNGSFTSGALGTNKAGNWVRKLQSLASNLGVDKKVVFTGHVSDEELNAIYEASDVIVLPSRIEGFGLVVCEGWFFEKPAIVSSGAGVSELVIDGSNGFVFKSGNYEELAEKIDIVLKEPDKYSRLSRDTVNKCNVEYAFNQLKDIFAQAMKDYGKNVNL
notes: Trehalose-6-phosphate synthase TPS (Saci_1249), Sulfolobus acidocaldarius; gene of 1,335 bp encoding 444 amino acids, calculated mass 50.3 kDa; amplified from genomic DNA with primers that run from the start codon to the stop codon, cloned into pET15b; The N-terminal His tag comes from pET15b; also called GT4-like TPS; source: E. coli BL21(DE3)-CodonPlus, purified …
With B1 the Km (purified protein [1]) was 1800 µM, the Km (purified protein [2]) was 3800 µM and the kcat (purified protein [2]) was 4.9 s⁻¹. The “stoichiometry N” value [3] was 2.
